“And” between values parts separate entries of the source, which are not always exact repeats. Identical values can stand only once.
Test system: Bacillus subtilis DB104 (SP-AmyQ fusion secretion)
Experiment: AmyQ secretion efficiency, weighted average sort bin (1 = best secretion, 10 = worst) (bin number (weighted average, 1-10)); higher = lower secretion efficiency
How it was run: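 With fluorescein-starch as substrate, a B. subtilis DB104 library expressing mature AmyQ fused to designed signal peptides (integrated at amyE) was encapsulated at about 0.3 cells per ~65 nL alginate bead. After about 13 h at room temperature, beads were nile red stained, and occupied beads were sorted by large-particle flow cytometry into 10 equally populated bins by green/red fluorescence ratio. Illumina sequencing of the amplicons in each bin was used to calculate the secretion score, which is the read-frequency-weighted average bin number, normalised to beads per bin, with low-abundance sequences left out.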

Sequence | AmyQ secretion efficiency
MKKAFLVFLSVVVKQQESVAQAKQL | 7.51
MNILLILLSSALSFGMLISAVPALAAGT | 2.56
MKWMCSICCAAVLLAGGAAQSEAV | 4.64
MKVPKTMLLSTAAGLLLSLTATSVSCHYV | 5.45
MKWMCSICCAAVLLAGGAVQAEAV | 2.89
MHLIRAAGAVCLAVVLIAGCRFNEDQHQLEGENT | 6.09
MARKRKIIAAVIVIAALITFNVRNASPG | 6.43
MFNRLFRRCYTSTLIMAFTLPNSVYAQKP | 5.72
MKLWMRKTLVVLFTIVTFGLVSPPAALMAATP | 2.71
MNKPTKLFILLALAALMFAAAAGGAGTIHAQQP | 1.87
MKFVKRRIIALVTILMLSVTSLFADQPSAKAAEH | 3.52
MRPVFPTSQKKYLFLSCFFGARQTEASASKR | 7.29
MKWMCSICCAAVLLAGGAAQADDE | 6.18
MKKSQYGGQTFGLVMGFSQFQPSTVFAADK | 6.36
MFKKHTISLLIIFLLASAVLAKPIECHTV | 5.04
MKRSISIFITCLLITLLTMGGMIASPASIAGT | 4.57
MKKKLAAGLTASAIVGTTLVVTPTAAEAATI | 2.99
MLKKIALTLCPAIVGSLLFFTKRKKRKASAHVS | 7.45
MNKFLKSNFRFRRKRKKGISLLASSNFIKASND | 8.33
MKLSVKIKKKRRKAAAAMTAKMYATAKGN | 7.56
MRKNRILALFVLSLGLLRRKVTPVSAASK | 7.91
MGMKKKLSLGVASAALGLALVGGGSWAAFN | 6.13
MFKFKKNFLVGLSAALMSIEDEEDDASAAST | 6.33
MKRIRIPMTLALGAALTIAPLSASAEEN | 2.88
MKKGIIRFLLVSFVLFSTGITGVQAAPA | 2.37
MLCVMMLLFSAIASFPVSPQAKDQ | 6.39

Sequence | AmyQ secretion efficiency
MRNLTKTSLLLAGLCTAAQMVFVTHASADDE | 5.02
MRKWYQYQGAGVLTSVILAFVYDKTKANEE | 8.25
MTMLRKIIGWILLLCIIPEFAFTVIASGKEV | 5.32
MTMLRKIIGWILLLCIIDDDEEDVIASGKEV | 5.3
MKSKWMSGLLLVAVGFSFTQVMVHEGET | 5.54
MTMLRKIIGWILLLCIIPLFAFTVISSGKEV | 6.13
MRKKRVITCVMAASLTLGSLLPAGYVTAKED | 2.51
MNKPTKLFSTLALAAGMTKDKTTSAGTIHAQQP | 7.85
MKKAAAVLLSLGGFSYGAGHVAEAKTK | 6.38
MRKYTVRRKRKRSFLSVLSGGHHESKAFPV | 7.56
MKSKWMSGLLLVAVGFSFTQVMVHWGET | 5.88
MKNMSCKLVVSVTLFFSFLTIGPLCHAQNS | 1.32
MKKVLMAFIICLSLILVVLAAGPSTAKAESV | 1.98
MKKRRKSFVAVAALSTTAFGAHASAKEI | 6.63
MRKKRRRSLITLGLASVIGTSSFLIPFTSKTASAETL | 1.75
MKSKGSIMACLILFSFTITTFINTETISMFSN | 7.38
MKLWMRKTLVVLFTIVTFGLVSPPAAMMADKP | 1.82
MKVLLSALLLLLFAEASGKKL | 6.56
MLKKKWMVGLLAGCLAAGGAFATEN | 6.32
MKLSVKIAGVLTVAAAAMTAKMYATWKGN | 7.14
MKSKGSIMACLILFSFTITTFINTETISAFSR | 3.97
MTSGTFIIWTIILGALLVCCIAVAYTLTKSQAGASSS | 4.88
MKLKSKLLLSCLALSTVFVATTICNAPTH | 5.85
MKRSISRRRKCLLITLLTMGGMIASPASAAGT | 2.97
MKKQIITATTAVVLGSTLFAGAASSQSI | 1.97
MKRLLSTLLIGIMLLTFAPSAFAAQK | 1.73

Sequence | AmyQ secretion efficiency
MNKKYFVLIVCIIFTSALFPTRRKKKRVTAAQG | 8.37
MKKRLIAPMLLSAASLAFFAMSGSKQAAAY | 3.82
MKRIRIPMTLALGAALTIAPLSFASFEEN | 6.34
MKSKGSIMACLILFSFTITTFINTGTISAFSN | 4.33
MKIRKILLSSALSFGMLISAVPALMAGT | 6.44
MKKRLIAPMLLSAASLAFFAMSGSAQDAAY | 6.76
MMIKQCVICLSLLVFGTTAAHARKR | 6.42
MKRKLLSSLAISALSLGLLVSAPTASFAATR | 2.21
MRKYTVIASILLSFLSVLSGGHHEWKAFPV | 4.79
MAIIIAIIAAVIVIAALITFNRNASPG | 6.99
MKKVLMAFIICLSVLAAPPSGAKAESV | 2.14
MKKKRVMLALTAAAGLGLTALHSAPAAKAAPL | 2.47
MKLSVKIAGVLTVAAAAMTAKMYATAKKK | 5.42
MRKKTKNRLISSVLSTVVISSPGAAGASSK | 3.33
MTKLKMLSMLTVMIASLFIFSSQALFVQY | 7.31
MMIKQNMSSNSSCVICLSLLVFGTTAAHAEET | 4.39
MKKTIMSFVAVAALSTTAFEEDHASAKEI | 2.56
MKKWIYVVLVLSIAGIGGFSVHYASS | 8.11
MKKRFFGPIILAFILFLFSSLAGAIAIPS | 6.16
MFNRLFRVCFLAALIMAFFLGNSVYAQKP | 2.37
MKRTWNVCLTALLSVLLVAGSVPFHGEAKKP | 2.79
MKKCLLFLTTIALILISLSTNAFAKNT | 2.13
MKLAKRVSALTPSTTLAIVIFAKAKEL | 8.15
MSKLVLCVSILAVILSGVALTQLS | 6.37
MKTLRSRCYKGILSGVIFFGLKIDAKDI | 6.82
MLCKRKRLFSAIASFPVSAQAKDQ | 7.61

Sequence | AmyQ secretion efficiency
MLCVMMLLFSAIASTPVSAQAKDQ | 5.3
MRKKTKNRLISSVLSTVVISSLLFPGAAGCSSK | 5.98
MKKKLAAGLTASAIVGTTLVVTPAEKATI | 7.23
MKLWMRKTLVVLFTIVTFGLVSPPAAKMADKP | 3.22
MKKIVSILFMFGLVMGFSQFQPSTVFAADK | 3.41 and 2.54
MKKKLAAGLTASAIVGTTLVVTPAELATI | 5.54
MKQCQKSRKRRRQFLVSLIIGTFVISVPFMANAQSD | 1.71
MKRIRIPMTLALGAALTIAPLSFASVEEN | 6.71
MKKLLAAGIIGLLTVTLVFLVVLLSIASPSFAAEK | 2.43
MAIIIAIIAAVIVIAALITFRRRNASPG | 8.26
MRKKIKVLTMCFLGLILFVPTALADNS | 1.88
MRKKCSTCRWILVLLLSCLSGKSAYAATS | 5.49
MMKKGLLAGALTATVLFGTCAVDVPKAEAASQ | 1.63
MKSKWMSGLLLVAVGFSFTQVMGHAGET | 5.88
MKKTGQQLLSLGLVFGFSYGAGHVAEAKTK | 3.07
MKRFILVLSFLSIIVAYPIQINASPM | 2.47
MTSSGGMFIVFICFFVLFSVHPIAAAAADS | 6.41
MTKKAKKKKLVCVLLISGWLAPAASASAQTT | 2.39
MKKKKAGLFLAAAVLLCLMVPQQIQGASS | 4.01
MKSKGSIMACLILFSFTITTFINTETISKFSN | 7.47
MKKLLAAGIIGLLTVSIASPCFAAEK | 2.42
MKLAKRVSALTPSTTLAITAKKKEL | 7.78
MKRLLSTLLIGIMLLTFAPSAFAKKR | 2.03
MAIIIAIIAAVIVIAALINVRNASPG | 8.6
MKKCLLFLTTIALILSGSTNAFAKNT | 1.7
MLYLKRVLLLLVTGLFMSLFAVTATASAQTG | 1.49

Sequence | AmyQ secretion efficiency
MKKWIYVVLVLSIAGIGGFSVHAKKR | 6.58
MHLIRAAGAVCLAVVLIAGCRKNSVQHQAEGENT | 5.67
MKRSSGKQLIGIMLLTFAPSAFAKQD | 3.5
MRRKRKRTSLLLAGLCTAAQMVFVTHASAEES | 2.89
MKNMSCKLVVSVTLFFSFLTIGPLGHAQNS | 2.46
MKKIWIGMLAAAVLLLITISVTAAMVPKVSLADAA | 5
MKKAFLVFLSVVLVTTVFLTSSFLVKQQESVAQAKQL | 4.08
MKTLRTLCVLMILSGVIFFGLKLDAKDI | 7.62
MAIIIAIIAAVIVIAALITFNVRNLSPG | 7.04
MNKKYFVLIVCIIFTSALFPTFSSVTCAQG | 1.06
MKMKSGMEQAVSVLLLLSRLPVQASLTSE | 7.57 and 7.03
MKLKSKLLLSCLALSTVFVATTIANAPTR | 6.08
MKWMCSICCAAVLLAGEDEDEDAQAEAV | 8.04
MKSKWMSGLLLVAVGFSFTQVMVHADEE | 6.6
MRKKRVITCVMAASPAGYASAKED | 7.41
MLKKKWMVGLLAGCLAAGGFSYNAFATPR | 3.48
MKKGQYRRGSLGLVFGFSYGAGHVAEAKTK | 7.9
MKRLLSTLLIGIMLLFFAGVAFAKQD | 3.63
MRKTSLLLAGLCTAAQMVFVTHASAEES | 2.32
MKLAKRVSALTPSTTLAITAKEKEL | 7.18
MKSKWMSGLLLVAVGFSFTQVMHHAGET | 6.66
MKKKLAAGLTASAIVGTTLVVTPDEAATI | 5.54
MKKKLAAGLTASAIVGTTLVVTPAEAADE | 3.03
MRKNRSSMSFTLILALFVLSLGLLSFMVTPVSAASK | 1.45
